Results reported in paper PMC3681697.
Values joined by “and” are separate entries in the source; they are usually repeats but may differ in a detail not shown here. Identical values can stand only once. Like-named read-outs stand apart in the source and are kept apart here.

Tests used:
[1] = molecular target: tailless desmin (human) (UniProt P17661); test: co-sedimentation
[2] = molecular target: headless desmin (human) (UniProt P17661); test: co-sedimentation
[3] = molecular target: mutant desmin E245D (human) (UniProt P17661); test: co-sedimentation
[4] = molecular target: full-length wild-type desmin (human) (UniProt P17661); test: co-sedimentation
[5] = molecular target: desmin rod (human) (UniProt P17661); test: co-sedimentation
[6] = molecular target: N-terminal His-tagged recombinant nebulin encompassing modules 160–164 (human) (UniProt P20929); test: ELISA
[7] = molecular target: N-terminal His-tagged recombinant nebulin encompassing modules 160–164 (human) (UniProt P20929); test: ELISA; remark: listed apart in the source

**Q.** For “N-terminal His-tagged recombinant nebulin encompassing modules 160–164 (from UniProt P20929 1-8525) (domain or fragment)”, which sedimentation value (percent in the pellet, equimolar mixture) [1] is on record?
**A.** 29%

**Q.** And the sedimentation value (percent in the pellet, equimolar mixture) [2]?
**A.** 57%

**Q.** And the nebulin bound at later time points (percent of total protein) [3]?
**A.** 20%

**Q.** What about the nebulin bound at later time points (percent of total protein) [4] of the same substance?
**A.** 35%

**Q.** What about the sedimentation value (percent in the pellet, equimolar mixture) [5] of the same substance?
**A.** 70%

**Q.** “full-length wild-type desmin (from UniProt P17661 1-470) (natural protein)” was tested. Which Kd [6] did it give?
**A.** 0.018 µM and 0.014 µM

**Q.** For “mutant desmin E245D (from UniProt P17661 1-470) (natural protein)”, which Kd [7] is on record?
**A.** 0.002 µM

**Q.** What about the Kd [6] of the same substance?
**A.** 0.008 µM

**Q.** Which Kd [6] does the source give for “mutant desmin S46Y (from UniProt P17661 1-470) (natural protein)” here?
**A.** 0.019 µM

**Q.** “mutant desmin T453I (from UniProt P17661 1-470) (natural protein)” was tested. Which Kd [6] did it give?
**A.** 0.011 µM
